Assay results taken from patent US20200121803A1 (published 2020).
Positions count from the first letter of the chain named.

B1: CD98 (CL-huAb104)-AAD (antibody, human IgG1, kappa, L234A L235A, V domains shown)
VH: EVQLVESGGGLVQPGGSLRLSCATSGFTFIDYYMSWVRQAPGKGLEWLGFIRNKAYGYTTEYSASVKGRFTISRDNSKSILYLQMNSLKTEDTAVYYCTRDRPAWFVYWGQGTLVTVSS
VL: DIVMTQTPLSLPVTPGEPASISCKSSQSLLYSSNQKNYLAWYLQKPGQSPQLLIYWASTRESGVPDRFSGSGSGTDFTLKISRVEAEDVGVYYCQQYYSYPYTFGGGTKVEIKR
modifications: synthon AAD on reduced interchain cysteines (sites not given)
B2: CD98 (CL-huAb104)-LB (antibody, human IgG1, kappa, L234A L235A, V domains shown)
VH: B1 VH
VL: B1 VL
modifications: synthon LB on reduced interchain cysteines (sites not given)
B3: CD98 (CL-huAb104)-ZT (antibody, human IgG1, kappa, L234A L235A, V domains shown)
VH: B1 VH
VL: B1 VL
modifications: synthon ZT on reduced interchain cysteines (sites not given)
B4: CD98 (CL-huAb108-ZZ (antibody, human IgG1, kappa, L234A L235A, V domains shown)
VH: EVQLVQSGAEVKKPGASVKVSCKASGFTFSDYTMAWVRQAPGQGLEWVATIIYSGRGTYYRDAVKGRFTITRDNSTSTLYLELSSLRSEDTAVYYCARQSDDTYYYWGYFDYWGQGTMVTVSS
VL: B1 VL with S22N, Y31F, S33G, E61Q, V91I, S99D, Y100V, G106Q, V110L
modifications: synthon ZZ on reduced interchain cysteines (sites not given)
B5: CD98 (CL-huAb108)-CZ (antibody, human IgG1, kappa, L234A L235A, V domains shown)
VH: B4 VH
VL: B1 VL with S22N, Y31F, S33G, E61Q, V91I, S99D, Y100V, G106Q, V110L
modifications: synthon CZ on reduced interchain cysteines (sites not given)
B6: CD98 (CL-huAb102)-CZ (antibody, human IgG1, kappa, L234A L235A, V domains shown)
VH: B1 VH with Y56N, G57R
VL: B1 VL
modifications: synthon CZ on reduced interchain cysteines (sites not given)
B7: CD98 (CL-huAb104)-ZZ (antibody, human IgG1, kappa, L234A L235A, V domains shown)
VH: B1 VH
VL: B1 VL
modifications: synthon ZZ on reduced interchain cysteines (sites not given)
B8: CD98 (CL-huAb102)-ZT (antibody, human IgG1, kappa, L234A L235A, V domains shown)
VH: B1 VH with Y56N, G57R
VL: B1 VL
modifications: synthon ZT on reduced interchain cysteines (sites not given)
B9: CD98 (CL-huAb110)-WD (antibody, human IgG1, kappa, L234A L235A, V domains shown)
VH: B4 VH with S54D, G55A
VL: B1 VL with S22N, Y31F, S33G, E61Q, V91I, Y100S, G106Q, V110L
modifications: synthon WD on reduced interchain cysteines (sites not given)
B10: CD98 (CL-huAb102)-LB (antibody, human IgG1, kappa, L234A L235A, V domains shown)
VH: B1 VH with Y56N, G57R
VL: B1 VL
modifications: synthon LB on reduced interchain cysteines (sites not given)
B11: CD98 (CL-huAb104)-CZ (antibody, human IgG1, kappa, L234A L235A, V domains shown)
VH: B1 VH
VL: B1 VL
modifications: synthon CZ on reduced interchain cysteines (sites not given)
B12: CD98 (CL-huAb108)-ZT (antibody, human IgG1, kappa, L234A L235A, V domains shown)
VH: B4 VH
VL: B1 VL with S22N, Y31F, S33G, E61Q, V91I, S99D, Y100V, G106Q, V110L
modifications: synthon ZT on reduced interchain cysteines (sites not given)
B13: CD98 (CL-huAb110)- LB (antibody, human IgG1, kappa, L234A L235A, V domains shown)
VH: B4 VH with S54D, G55A
VL: B1 VL with S22N, Y31F, S33G, E61Q, V91I, Y100S, G106Q, V110L
modifications: synthon LB on reduced interchain cysteines (sites not given)
B14: CD98 (CL-huAb102)-WD (antibody, human IgG1, kappa, L234A L235A, V domains shown)
VH: B1 VH with Y56N, G57R
VL: B1 VL
modifications: synthon WD on reduced interchain cysteines (sites not given)
B15: CD98 (CL-huAb110)-AAD (antibody, human IgG1, kappa, L234A L235A, V domains shown)
VH: B4 VH with S54D, G55A
VL: B1 VL with S22N, Y31F, S33G, E61Q, V91I, Y100S, G106Q, V110L
modifications: synthon AAD on reduced interchain cysteines (sites not given)
B16: CD98 (CL-huAb104)-WD (antibody, human IgG1, kappa, L234A L235A, V domains shown)
VH: B1 VH
VL: B1 VL
modifications: synthon WD on reduced interchain cysteines (sites not given)
B17: CD98 (CL-huAb102)-ZZ (antibody, human IgG1, kappa, L234A L235A, V domains shown)
VH: B1 VH with Y56N, G57R
VL: B1 VL
modifications: synthon ZZ on reduced interchain cysteines (sites not given)
B18: CD98 (CL-huAb110)-ZT (antibody, human IgG1, kappa, L234A L235A, V domains shown)
VH: B4 VH with S54D, G55A
VL: B1 VL with S22N, Y31F, S33G, E61Q, V91I, Y100S, G106Q, V110L
modifications: synthon ZT on reduced interchain cysteines (sites not given)
B19: CD98 (CL-huAb108)-AAD (antibody, human IgG1, kappa, L234A L235A, V domains shown)
VH: B4 VH
VL: B1 VL with S22N, Y31F, S33G, E61Q, V91I, S99D, Y100V, G106Q, V110L
modifications: synthon AAD on reduced interchain cysteines (sites not given)
B20: Ab6-CZ (Ab6 conjugated to Bcl-xL inhibitor synthon CZ) (antibody, V domains shown)
VH: QVQLKESGPGLAQPSQTLSLTCTVSGFSLSTYGVIWLRQPPGKGLEWMGVIWTNGNTNYNSTLKSRLSISRDTSESQVYLQMNSLQTEDTATYYCARHYYDGAYYYGYFDYWGQGVMVTVSS
VL: DIVMTQTPSSQAVSAGEKVTMSCKSSQSLLYSENKKNYLAWYQQKPGQSPKLLIYWASTRESGVPDRFIGSGSGTDFTLTISSVQAEDLAVYYCQQYYYFPYTFGAGTKLELK
B21: Ab7-CZ (Ab7 conjugated to Bcl-xL inhibitor synthon CZ) (antibody, V domains shown)
VH: B20 VH with A12V, L37V, T53A, E75K, Q81K, A103T
VL: B20 VL with S22N, A106P
B22: Ab1-CZ (Ab1 conjugated to Bcl-xL inhibitor synthon CZ) (antibody, V domains shown)
VH: EVKLVESGGGLVQPGGSLRLSCATSGFTFTDYYMSWVRQPPGKALEWLGFIRNPANVYTTEYSASVKGRFTISRDNSQSILYLQMNTLRAEDSATYYCARASYGNSEGWFAYWGQGTLVTVSA
VL: DIVMSQSPSSLAVSVGEKVTMSCKSSQNLLYNNNQKNYLAWYQQKPGQSPKLLIYWASTRESGVPDRFTGSGSGTDFTLTISSVKAEDLAVYYCQQYYSYPRTFGGGTKLEIK
B23: Ab5-CZ (Ab5 conjugated to Bcl-xL inhibitor synthon CZ) (antibody, V domains shown)
VH: B22 VH with S35T, P54K, V57G, Q78L, G104V
VL: B22 VL with N28S, N32S, N33S, P46L, Q96H
B24: Ab4-CZ (Ab4 conjugated to Bcl-xL inhibitor synthon CZ) (antibody, V domains shown)
VH: B22 VH with A23T, P54K, N56T, V57I
VL: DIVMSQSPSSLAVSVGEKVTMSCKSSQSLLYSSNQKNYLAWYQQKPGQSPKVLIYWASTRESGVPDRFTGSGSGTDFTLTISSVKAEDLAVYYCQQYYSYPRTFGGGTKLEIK
B25: Ab8-CZ (Ab8 conjugated to Bcl-xL inhibitor synthon CZ) (antibody, V domains shown)
VH: EVQLVESGGGLVQPGRSLKLSCAASGFTFSDYAMAWVRQAPKKGLEWVASIIYDGRGTYYRDSVKGRFTISRDNAKSTLYLQMDSLRSEDTATYYCARQGDGTYYYWGYFDYWGQGVMVTVSS
VL: DIVMTQSPSSLAVSAGETVTINCKSSQSLLSSGNQKNYLAWYQQKPGQSPKLLIYWASTRQSGVPDRFIGSGSGTDFTLTINSVQAEDLAIYYCQQYYDTPYTFGAGTKLELK

Molecular target: T1, human CD98, endogenously expressed on Molt-4 human acute lymphoblastic leukemia cells (human)
T1 chain: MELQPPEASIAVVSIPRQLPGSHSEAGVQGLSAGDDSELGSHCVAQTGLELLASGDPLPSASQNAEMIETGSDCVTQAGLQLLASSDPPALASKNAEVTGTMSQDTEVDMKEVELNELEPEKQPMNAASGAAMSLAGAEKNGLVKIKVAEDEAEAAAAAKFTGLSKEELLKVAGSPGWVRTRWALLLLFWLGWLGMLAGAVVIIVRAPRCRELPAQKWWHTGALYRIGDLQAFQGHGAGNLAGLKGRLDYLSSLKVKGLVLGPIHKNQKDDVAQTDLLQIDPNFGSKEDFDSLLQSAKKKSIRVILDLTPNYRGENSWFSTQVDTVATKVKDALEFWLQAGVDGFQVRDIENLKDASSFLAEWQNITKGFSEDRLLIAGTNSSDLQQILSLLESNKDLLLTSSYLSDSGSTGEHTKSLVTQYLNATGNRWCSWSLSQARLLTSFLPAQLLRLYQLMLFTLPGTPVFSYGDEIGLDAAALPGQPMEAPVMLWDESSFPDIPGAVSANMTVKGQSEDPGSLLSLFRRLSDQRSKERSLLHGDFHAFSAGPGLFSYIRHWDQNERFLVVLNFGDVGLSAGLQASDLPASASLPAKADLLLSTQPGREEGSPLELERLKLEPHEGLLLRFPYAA
Test: cell-based or functional assay

Binder | % Cell Viability at 50 nM [%] | Molt4 IC50 [nM]
B1 | 2.5 | 0.028
B2 | 3.5 | 0.062
B3 | 3.3 | 0.042
B4 | 5.8 | 0.199
B5 | 1.1 | 0.068
B6 | 1 | 0.015
B7 | 6.5 | 0.061
B8 | 3.4 | 0.04
B9 | 10.7 | 0.226
B10 | 14.8 | 0.053
B11 | 0.9 | 0.023
B12 | 4.5 | 0.144
B13 | 1.9 | 0.208
B14 | 14.3 | 0.109
B15 | 1.5 | 0.074
B16 | 16.4 | 0.067
B17 | 6.3 | 0.072
B18 | 3.5 | 0.156
B19 | 1.8 | 0.091

Molecular target: T2, Human CD98, endogenous on HCC38, Molt-4 and Jurkat human cancer cells (human)
T2 chain: T1 chain
Test: cell-based or functional assay

Binder | ADC potency, IC50 (nM), HCC38 growth inhibition [nM] | ADC potency, IC50 (nM), Jurkat growth inhibition [nM] | ADC potency, IC50 (nM), Molt-4 growth inhibition [nM]
B20 | 0.438 | 0.086 | 0.057
B21 | 1.15 | 0.134 | 0.079
B22 | 0.998 | 0.05 | 0.053
B23 | 0.728 | 0.137 | 0.022
B24 | 0.879 | 0.371 | 0.127
B25 | 0.963 | 0.121 | 0.079
